Experimental data published in the DeepSol protein solubility set.

Test: soluble on expression in E. coli; label from the status in PepcDB or PDB records

Sequence | soluble on expression in E. coli
MKETEQVSEAPHGLEGAWLDLTNRVRVSGDTVEACSAFSIGPPRCRWLLQATDRGVNCAALDHYVPHICGTHTETVYHIAHHRYIKRAVCEIPFFRFHKARIQVCTAKIACTEQVLPSADTDYPCLEPNDLIVGPSALNRAPRYTRAQDSTIEALILIVVGPDGTSDWRDGKLDDRPPYLTPAAIESLATRYPNMRHLLTNLPSVDRRRDGGLVRSHRAFFATDFAGDGTPSESPQKTITELLRVPPDWQLYDDAEGVVCISLAPIEGLDAIPSSVYFKSH | not soluble
MKEVIAQNAKLSADDLKEILPKANKLEDFAFEKNEDSTISEVFQAKNGSENEGYIIKVSPKGFNGPIDMVVAIDKNREISGVKVLSQAETPGLGAKVEESSFSEKFKGLTIEDNIKIVKTSPSSQGEIQGITGATISSNAVSSGINDAISFYKENVLGEDLSKEKILNLSKINLEGDLKELTIELEEGIDKVSIVSNGEKEIGYAIEASEVGMYEEKPIKFALGISTGGIITGVQIIDHKETAGLGDLIEDENFLNSFIGVSSLDKLSVKENTNEIDLSVYGEVVNVDSISGATKSSMAIIKGITNVINFYNNNLSLEHHHHHH | soluble
MKFDNKAPIYIQIMDKIKIDIINGTLKPGDKLPSVREMAVKFKVNPNTLQRVYQELERENITYTQRGTGSFVREDSDMIINLKKEMASEVIENFIENIKEFGFGNKDILKIVEDKLNEEEK | soluble
MKFETINQESIAKLMEIFYEKVRKDKDLGPIFNNAIGTSDEEWKEHKAKIGNFWAGMLLGEGDYNGQPLKKHLDLPPFPQEFFEIWLKLFEESLNIVYNEEMKNVILQRAQMIASHFQNMLYKYGGH | soluble
MKFHVIDRENWNREQYFEHYLELKCTFSMTVNVDITLLIKKVHQKGIKFYPTFIYIISRIINKHKEFRTCFNDEGVLGYWEEMIPSYTIFHKDDKSFSSIWTDYSSDFRIFYKNYEEDMRCYASVHGLLTKENIPPNIFPISGIPWTSFTGFNLNINNDGDFLLPIITCGKYFNEENKIMLPVSLQVHHSVCDGYHVSRFIEDLQELSNSCNEWLK | not soluble
MKFIIEALKRVRERRPLVHNITNFVVMNTTANALLALGASPVMAHAEEELEEMIRLADAVVINIGTLDSGWRRSMVKATEIANELGKPIVLDPVGAGATKFRTRVSLEILSRGVDVLKGNFGEISALLGEEGKTRGVDSLEYGEEEAKKLTMNAAREFNTTVAVTGAVDYVSDGRRTFAVYNGHELLGRVTGTGCMVAALTGAFVAVTEPLKATTSALVTFGIAAEKAYEEAKYPGSFHVKLYDWLYRINENVIRTYAKVREVEL | soluble
MKFIIKLFPEITIKSQSVRLRFIKILTGNIRNVLKHYDETLAVVRHWDNIEVRAKDENQRLTIRDALTRIPGIHHILEVEDVPFTDMHDIFEKALVQYRDQLDGKTFCVRVKRRGKHDFSSIDVERYVGGGLNQHIESARVKLTNPDVTVHLEVEDDRLLLIKGRYEGIGGFPIGTQEDVLSLISGGFDSGVSSYMLMRRGCRVHYCFFNLGGAAHEIGVRQVAHYLWNRFGSSHRVRFVAINFEPVVGEILEKIDDGQMGVILKRMMVRAASKVAERYGVQALVTGEALGQVSSQTLTNLRLIDNVSDTLILRPLISYDKEHIINLARQIGTEDFARTMPEYCGVISKSPTVKAVKSKIEAEEEKFDFSILDKVVEEANNVDIREIAQQTGQEVVEVETVNDFGPNDVILDIRSVDEQEDKPLKVEGIDVVSLPFYKLSTKFGDLDQNRTWLLWCERGVMSRLQALYLREQGFKNVKVYRP | not soluble
MKFKKLFSRLLLATGIMFAGTFTYQNIEHTHVSKAASYNYYTKGQCTWWAYQRRAQLGKPVSNRWGNAKNWYYNAKRSGYRTGHTPKRYAVMQSTAGYYGHVAVVERVYSNGSIKVSEYNYNRPSAYGTRYLSKWSARNYNYIYLEHHHHHH | not soluble
MKFPGQRKSKHYFPVHARDPLVSQAQEAKKMSRTHIIGIDQTLVDIEAKVDDAFIEKYGLSKGHSLVIDNDKAEMLYNELKDNNMISNEFAGGTIGNTLHNYSVLADDKSTLLGVMSEDIHIGSYSYRYLCNTSSRMDLNYLQPVPGAIGRCFALISEDGERTFAISEGDMNQLRAESIPEKIFKNASALVLTAYLVRCKEGDPMPEATMKAIEYAKKYDVPVVLTMGTKFVVQDDPQYWRDFLNDHVTVVAMNEEEGEALTGATDPLEAANKTLEWVDLVLCTAGPVGLYMAGYTEDSAKRETSLPLLPGTIAEFNQFEFSRPAVKDSCENPIKVFSHISPYMGGPEKIKNTNGAGDGALSALLHDMAANHYHRNNVPNSSKHQHSFLTYSSFSQVCKYSNRVSFEVLAQHSPRLSRGLPEREDSLEEAYWER | not soluble
MKFTFEVPAPLQQVAPISYYESLLSNYRYRDISFLEMSTTGKILGECTIGENNYTIQGSECDGLISSIEILDVKEADSFLDIPLSLPNRKFVKALKDLGIEFDHDRDGVTIHHENRVIALSYQFGKVAAICWDSE | not soluble
MKFVLAVHGTRGDVEPCAAVGVELRRRGHAVHMAVPPNLIEFVESAGLTGVAYGPDSDEQINTVAAFVRNLTRAQNPLNLARAVKELFVEGWAEMGTTLTTLADGADLVMTGQTYHGVAANVAEYYDIPAAALHHFPMQVNGQIAIPSIPTPATLVRATMKVSWRLYAYVSKDADRAQRRELGLPPAPAPAVRRLAERGAPEIQAYDPVFFPGLAAEWSDRRPFVGPLTMELHSEPNEELESWIAAGTPPIYFGFGSTPVQTPVQTLAMISDVCAQLGERALIYSPAANSTRIRHADHVKRVGLVNYSTILPKCRAVVHHGGAGTTAAGLRAGMPTLILWDVADQPIWAGAVQRLKVGSAKRFTNITRGSLLKELRSILAPECAARAREISTRMTRPTAAVTAAADLLEATARQTPGSTPSSSPGR | not soluble
MKGDRLADIRTIGVVVLYRPDSSVLDAIASYRHQVHELIVVDNSEEQDHKLHSRLRDRFGATIVGEGRNLGIAAALNRAAREALAEGFDLLLTMDQDSRAEPGMVEQMLACLGSDWRERVGLIAPFHLTGARPAPGGTTPCSDVMTPMTSGCLVNLAAFREVGPFRDDFFIDFVDNEYCLRLRKKGFQVVRANRALLHHRVGDLRRYGPFVATHHSPLRRYYKTRNRCAVFAEYLRDFPVHCLFDLVRLGKEVASILIFEREKTAKLRMMWRGFLDFRRGRFGPYGGLEHHHHHH | not soluble
MKGIARLVTSLSRIGGRKVVSGTSTVTSSSSSSLLLSRRSLFISATNLLNSRTKDSALPSLNSSLLAQKWNFLGGQRRTMFIQTQSTPNPSSLMFYPGKPVMEVGSADFPNVRSALGSPLAKSIYSIDGVVRVFFGSDFVTVTKSDDVSWDILKPEIFAAVMDFYSSGQPLFLDSQAAAAKDTAISEDDSETVAMIKELLETRIRPAVQDDGGDIEYCGFDPESGIVKLRMQGACSGCPSSSVTLKSGIENMLMHYVSEVKGVEQEFDGEDEEGTLSGEMRVE | not soluble
MKGSASTKPGGSPSTSRTAHPARANTSGNASTSGKQPQGPRAPVHAKGKPKRGGAEAEATESDKVAYTVIITNVENDFGKLHRACLPYYCGLRSDYEGTLDVERLLHEGGPQSRRLIGAVRGCSYAVRCRTETRSAEISLYGPANADFAPMQLTKAPRRPSTPAADAKSMAAPTTSSSEKLAQKDTTAPAEDVSEETALANVGAVEQLALRLRRQHYFEEHLPVSVHLPGRKADEVLLRIDKGSASSDADGTNATGVKNEEANGVAEDADADRRGSAATPVTASASREKRQRVVEEDRNADAPSLQRVKAEAPDGDEEGTEEDSATAHERGKTTENDVDRRADNGGRRSRRLTKSKSATIIAQFPRRQKDFVTAVAALSSRVPLQRVRGRLRDLPGFLSCWSLYERHLRVVFRDAESLFKAKQLLDQFELEPGLRVSLIFSDPLSRTNAEYLRAQENESVNE | not soluble
MKGSRIELGDVTPHNIKQLKRLNQVIFPVSYNDKFYKDVLEVGELAKLAYFNDIAVGAVCCRVDHSQNQKRLYIMTLGCLAPYRRLGIGTKMLNHVLNICEKDGTFDNIYLHVQISNESAIDFYRKFGFEIIETKKNYYKRIEPADAHVLQKNLKVPSGQNADVQKTDN | soluble
MKHHHHHHGKAAGVTLGEVWKRQLNMLGKQEFERYKVSDITEVDRTAARRYLKEGRTDVGISVSRGAAKIRWLHERGYLRITGRVLDLGCGRGGWSYYAAAQKEVMSVKGYTLGIEGHEKPIHMQTLGWNIVKFKDKSNVFTMPTEPSDTLLCDIGESSSNPLVERDRTMKVLENFERWKHVNTENFCVKVLAPYHPDVIEKLERLQLRFGGGIVRVPFSRNSTHEMYYISGARNNITHMVNTTSRSLLRRMTRPSGKAIIEGDVFLPTGTRSVASEAGTIDHEALKLRVDQIKAEYSKT | soluble
MKHHHHHHMTFPGDTAVLVLAAGPGTRMRSDTPKVLHTLAGRSMLSHVLHAIAKLAPQRLIVVLGHDHQRIAPLVGELADTLGRTIDVALQDRPLGTGHAVLCGLSALPDDYAGNVVVTSGDTPLLDADTLADLIATHRAVSAAVTVLTTTLDDPFGYGRILRTQDHEVMAIVEQTDATPSQREIREVNAGVYAFDIAALRSALSRLSSNNAQQELYLTDVIAILRSDGQTVHASHVDDSALVAGVNNRVQLAELASELNRRVVAAHQLAGVTVVDPATTWIDVDVTIGRDTVIHPGTQLLGRTQIGGRCVVGPDTTLTDVAVGDGASVVRTHGSSSSIGDGAAVGPFTYLRPGTALGADGKLGAFVEVKNSTIGTGTKVPHLTYVGDADIGEYSNIGASSVFVNYDGTSKRRTTVGSHVRTGSDTMFVAPVTIGDGAYTGAGTVVREDVPPGALAVSAGPQRNIENWVQRKRPGSPAAQASKRASEMACQQPTQPPDADQTP | soluble
MKHLMKMWNPWWIERKVPASKKRISRPETLETILKLLDIREVICITGVRRCGKSTIMYQAIDHLIGKGVEPENILYFNLDEPFEDKSIGLLDRIFGEYIELHVPKGRKYIFLDEIQNVKDWEQWVKKFYDLHGEDIKFVLTGSNSSMLSDQLSILLTGRMITQHVFPLSFKEYLDFESFELKDPDIQRNEILHYFNKYLFKGGFPEVVLENDMDINHLRLTEYFNSILLRDIVVGRNIRESAKLIELANYSLSNVSTLLSYSKISNATGLSVNSLKEYLLFLEQAYLIYQLNFFSYSVKDSISIKMPKKVYCIDNGLRNSAAFTFSADEGRLAENLAFVELKRRKVEFFYWKEKREVDFVIKGIDGALTGINCTCTDHIRQGEINALLELKEQFGEKVSRLILLTKNLEKKENDISYIPLWKWVLGTRLSK | not soluble
MKHYTVAINGLPQEFEGFTILHLTDLHAKKYGDQQDKLIRLINRQNFDMVAMTGDFIDKDNPDLEPTLELIQGLAAKPIFFVPGNHEWRYDFSIKSSLEEHGVKILDNKNAELARGDARLWIAGVDDPYLHRDKLEEALHGIADAQPKLLLAHAPNIFKPAAESGVELVLVGHTHGGQVRLPLIGAIVAPGQGLFPQYDYGHFTAGSTNMIVNGGLGESTLPLRFCSRPEIVLVKLVSAPLEHHHHHH | not soluble
MKIAALYDIHGNYPALKEVLKQVKKLSPDLVVLGGDLIAGPMPLETLSLLKHVSTTFKTVGIMGNNDQDIVDIYAKKRVGLSRKATEQLTWIANQLSYKQVSFLRNLLPSISIGNYFFCHAVKNDNTTVFSPQQNKAYIETLFKGVQESYIICGHTHIQFELSLPNKKIINAGSIGMPFSNQFGAQWLWLDDNRIEYKRTIFNQQAAIQLISQTEYPFKNEFIANNLRSTISLSQGYSILNTLIRAQNAQHDLSLEHHHHHH | soluble
MKIAALYDIHGNYPALKEVLKQVKKLSPDLVVLGGDLIAGPMPLETLSLLKHVSTTFKTVGIMGNNDQDIVDIYAKKRVGLSRKATEQLTWIANQLSYKQVSFLRNLLPSISIGNYFFCHAVKNDNTTVFSPQQNKAYIETLFKGVQESYIICGHTHIQFELSLPNKKIINAGSIGMPFSNQFGAQWLWLDDNRIEYKRTIFNQQAAIQLISQTEYPFKNEFLEHHHHHH | not soluble
